# Experimental data: publication PMC6538167
# Target: Sodium/potassium-transporting ATPase subunit alpha-1 (human (endogenous in frontal lobe tissue)) (UniProt P05023)
substance,measurement,value
SST14 (peptide),"total ^86Rb^+ uptake in HEK293 cells in the presence of SST14 (50 μM), compared to controls",74.4 % of control
same,"total ^86Rb^+ uptake in ReN (ReNcell VM) cells in the presence of SST14 (50 μM), compared to controls",91.5 % of control
same,"total ^86Rb^+ uptake in mouse N2a cells in the presence of SST14 (50 μM), compared to controls",53.6 % of control
